Here are results for 1 molecule from article PMC8448731 (2021).

This assay addresses recombinant RBD (ThermoFisher, RP-87678) (SARS-CoV-2, UniProt P0DTC2 319-541). Description: BLI. In general terms: BLI is a label-free optical method that tracks binding on a fibre tip over time.

Broadly, the koff is a measure of how fast the partners let go of each other.

B1: GST-tagged SR6v15 (VHH)
VHH: EVQLVESGGGLVQAGDSLRLSCAASGDSYILWRMGWFRQAPGKEREFVAAISLDGQFTNYADSVRGRFSISADSAKYTVYLQMNSLKPEDTAVYYCAALPFLDYWGQGTQVTVSS
With B1, the koff is 0.00175 s⁻¹.
